The values that follow come from patent publication US9872922B2, “Anti-EFNA4 antibody-drug conjugates” (PFIZER, INC., priority 2013, dated 2018).

One may read the Kd as the free concentration of one partner at which half of the binding sites on the other are occupied at equilibrium, for simple one-to-one binding. A high value points to weaker binding.

For the assay, the target named is T1, human Ephrin-A4 (Homo sapiens, UniProt P52798).
T1 construct: purchased
T1 sequence (P52798 26-170): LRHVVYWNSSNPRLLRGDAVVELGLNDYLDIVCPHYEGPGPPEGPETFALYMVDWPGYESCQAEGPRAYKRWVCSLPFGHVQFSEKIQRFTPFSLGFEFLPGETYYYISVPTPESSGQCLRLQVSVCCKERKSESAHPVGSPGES
Kind of assay: SPR steady state affinity of Eph receptors for Ephrin-A4. As to conditions: for Kd: SPR BIAcore 2000, steady state affinity fit, captured Eph receptor, monomeric human Ephrin-A4 as analyte; for rank of affinity for Ephrin-A4 among nine Eph receptors: steady state affinity. Type of assay: binding. The procedure:
The properties of Ephrin-A4 binding to Eph receptors were further analyzed. Since anti-EFNA4 antibodies bind to Ephrin-A4 while the ligand is engaged with its Eph receptor, the affinity between these two macromolecules was determined. The affinities of commercially available Eph receptors and Ephrin-A4 were directly compared by surface plasmon resonance using a BIAcore 2000 (GE Healthcare) to determine the most relevant receptor. An anti-human antibody capture kit was used to immobilize recombinant Eph receptors on a CM5 biosensor chip. Prior to each antigen injection cycle, Eph receptors at the concentration of 2 μg/mL were captured on the surface with a contact time of 2 minutes and a flow rate of 5 μL/min. The captured antibody loading from baseline was constant at 150-260 response units. Following receptor capture and 1 min baseline, monomeric human Ephrin-A4 was flowed over the surface at concentrations of 400, 241, 145, 87, 53, 32, 19 and 12 nM for a 2 minute association phase followed by a 2 minute dissociation phase at a flow rate of 10 μL/min. Following each cycle, the anti-human capture surface was regenerated with 30 seconds contact time of 3M MgCl2 at 10 μL/min.
Biacore data was processed by initially calculating an average of the response at equilibrium (Req). The Req was then plotted versus concentration (M) and the steady state affinity fit was used to calculate the affinity and theoretical Rmax. In all cases, at least 5 different analyte concentrations were used to make this calculation. All data analysis steps were completed in BiaEvaluation Software 3.1 (GE Healthcare).
In general terms: SPR reads the build-up and loss of mass on a sensor chip optically.

Consider “EphA2: recombinant Eph receptor captured on biosensor chip [reference compound]”, for which binding was put at a Kd of 31 nM and the “rank of affinity for Ephrin-A4 among nine Eph receptors” value is recorded as “highest affinity”.

B1: EphA10: recombinant Eph receptor captured on biosensor chip (protein)
chain: EEVILLDSKASQAELGWTALPSNGWEEISGVDEHDRPIRTYQVCNVLEPNQDNWLQTGWISRGRGQRIFVELQFTLRDCSSIPGAAGTCKETFNVYYLETEADLGRGRPRLGGSRPRKIDTIAADESFTQGDLGERKMKLNTEVREIGPLSRRGFHLAFQDVGACVALVSVRVYYKQCRATVRGLATFPATAAESAFSTLVEVAGTCVAHSEGEPGSPPRMHCGADGEWLVPVGRCSCSAGFQERGDFCEACPPGFYKVSPRRPLCSPCPEHSRALENASTFCVCQDSYARSPTDPPSASCTRPPSAPRDLQYSLSRSPLVLRLRWLPPADSGGRSDVTYSLLCLRCGREGPAGACEPCGPRVAFLPRQAGLRERAATLLHLRPGARYTVRVAALNGVSGPAAAAGTTYAQVTVSTGPGAPWEEDEIRRDRVEPQSVSLSWREPIPAGAPGANDTEYEIRYYEKGQSEQTYSMVKTGAPTVTVTNLKPATRYVFQIRAASPGPSWEAQSFNPSIEVQTLGEAASGSRDQSPA
For the molecule B1, binding was put at a Kd of 431 nM and the “rank of affinity for Ephrin-A4 among nine Eph receptors” value is on record as “lowest affinity”.

B2: EphA1 (protein)
chain: KEVTLMDTSKAQGELGWLLDPPKDGWSEQQQILNGTPLYMYQDCPMQGRRDTDHWLRSNWIYRGEEASRVHVELQFTVRDCKSFPGGAGPLGCKETFNLLYMESDQDVGIQLRRPLFQKVTTVAADQSFTIRDLVSGSVKLNVERCSLGRLTRRGLYLAFHNPGACVALVSVRVFYQRCPETLNGLAQFPDTLPGPAGLVEVAGTCLPHARASPRPSGAPRMHCSPDGEWLVPVGRCHCEPGYEEGGSGEACVACPSGSYRMDMDTPHCLTCPQQSTAESEGATICTCESGHYRAPGEGPQVACTGPPSAPRNLSFSASGTQLSLRWEPPADTGGRQDVRYSVRCSQCQGTAQDGGPCQPCGVGVHFSPGARGLTTPAVHVNGLEPYANYTFNVEAQNGVSGLGSSGHASTSVSISMGHAESLSGLSLRLVKKEPRQLELTWAGSRPRSPGANLTYELHVLNQDEERYQMVLEPRVLLTELQPDTTYIVRVRMLTPLGPGPFSPDHEFRTSPPVSRGLTGGE
Molecule B2 had a Kd of 414 nM.

B3: EphB2 (protein)
chain: VEETLMDSTTATAELGWMVHPPSGWEEVSGYDENMNTIRTYQVCNVFESSQNNWLRTKFIRRRGAHRIHVEMKFSVRDCSSIPSVPGSCKETFNLYYYEADFDSATKTFPNWMENPWVKVDTIAADESFSQVDLGGRVMKINTEVRSFGPVSRSGFYLAFQDYGGCMSLIAVRVFYRKCPRIIQNGAIFQETLSGAESTSLVAARGSCIANAEEVDVPIKLYCNGDGEWLVPIGRCMCKAGFEAVENGTVCRGCPSGTFKANQGDEACTHCPINSRTTSEGATNCVCRNGYYRADLDPLDMPCTTIPSAPQAVISSVNETSLMLEWTPPRDSGGREDLVYNIICKSCGSGRGACTRCGDNVQYAPRQLGLTEPRIYISDLLAHTQYTFEIQAVNGVTDQSPFSPQFASVNITTNQAAPSAVSIMHQVSRTVDSITLSWSQPDQPNGVILDYELQYYEKELSEYNATAIKSPTNTVTVQGLKAGAIYVFQVRARTVAGYGRYSGKMYFQTMTEAEYQTSIQEKLPL
B3 showed a Kd of 135 nM.

B4: EphA3 (protein)
chain: ELIPQPSNEVNLLDSKTIQGELGWISYPSHGWEEISGVDEHYTPIRTYQVCNVMDHSQNNWLRTNWVPRNSAQKIYVELKFTLRDCNSIPLVLGTCKETFNLYYMESDDDHGVKFREHQFTKIDTIAADESFTQMDLGDRILKLNTEIREVGPVNKKGFYLAFQDVGACVALVSVRVYFKKCPFTVKNLAMFPDTVPMDSQSLVEVRGSCVNNSKEEDPPRMYCSTEGEWLVPIGKCSCNAGYEERGFMCQACRPGFYKALDGNMKCAKCPPHSSTQEDGSMNCRCENNYFRADKDPPSMACTRPPSSPRNVISNINETSVILDWSWPLDTGGRKDVTFNIICKKCGWNIKQCEPCSPNVRFLPRQFGLTNTTVTVTDLLAHTNYTFEIDAVNGVSELSSPPRQFAAVSITTNQAAPSPVLTIKKDRTSRNSISLSWQEPEHPNGIILDYEVKYYEKQEQETSYTILRARGTNVTISSLKPDTIYVFQIRARTAAGYGTNSRKFEFETSPDSFSISGESSQ
B4 came in with a Kd of 77 nM.
